Laboratory results taken from the supplement of paper PMC10567573.

B1: ISL2 (parent)
chain: HYPFLGAMGDHSKKKPGTAMCVGC

Variants of: B1
Assay: protein stability index of a GFP-peptide fusion (GPS, HEK-293T) (PSI 1-6); higher = more stable
Conditions: c terminus: a fixed tail appended
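Also: lentivirally expressed fusions sorted by FACS into six bins by GFP to DsRed ratio, PSI derived from sequencing read proportions per bin multiplied by bin number.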

Protein stability index: each site, then its substitutions
A7: F 1.79 | G 2.99 | H 2.45 | I 1.9 | K 2.86 | L 2.45 | M 2.31 | N 3.6 | P 2.6 | Q 3.22 | R 2.31 | S 2.74 | T 2.93 | V 2.37 | W 1.95 | Y 1.84
M8: A 4.25 | C 3.33 | D 3.52 | E 3.81 | F 2.55 | G 3.85 | H 2.8 | I 2.3 | K 3 | L 3.55 | N 2.94 | P 3.07 | Q 3.16 | R 3.19 | S 2.52 | T 2.82 | V 2.96 | W 2.17 | Y 2.51
G9: A 3.37 | C 3.51 | D 2.85 | E 3.58 | F 1.7 | H 3.05 | I 1.95 | K 2.52 | L 2.4 | M 2.65 | N 2.58 | P 2.96 | Q 2.77 | R 2.19 | S 2.65 | T 2.82 | V 2.09 | W 1.86 | Y 2.31
D10: A 2.39 | C 2.6 | E 3.69 | F 1.81 | G 2.18 | H 2.52 | I 2.2 | K 1.88 | L 2.39 | M 1.79 | N 2.07 | P 2.35 | Q 1.78 | R 2.07 | S 2.86 | T 2.37 | V 1.7 | W 1.64 | Y 1.56
H11: A 2.69 | C 2.64 | D 3.5 | E 3.44 | F 2.19 | G 2.81 | I 2.33 | K 2.9 | L 2.21 | M 2.74 | N 2.92 | P 3.16 | Q 3.25 | R 2.92 | S 2.35 | T 2.45 | V 2.39 | W 1.93 | Y 1.99
S12: A 2.53 | C 3.95 | D 3.26 | E 3.03 | F 2.08 | G 2.56 | H 2.73 | I 1.8 | K 2.56 | L 1.99 | M 1.92 | N 2.92 | P 2.27 | Q 3.07 | R 2.72 | T 2.59 | V 2.58 | W 2.52 | Y 2.48
K13: A 2.15 | C 3.8 | D 3.18 | E 3.07 | F 2.34 | G 2.65 | H 3.04 | I 2.04 | L 2.23 | M 2.31 | N 2.79 | P 2.84 | Q 2.69 | R 1.8 | S 2.64 | T 2.8 | V 2.4 | W 1.9 | Y 2.06
K14: A 2.29 | C 4.25 | D 3 | E 3.44 | F 1.98 | G 2.34 | H 3.07 | I 2.78 | L 2.44 | M 2.91 | N 2.8 | P 2.98 | Q 2.45 | R 2.67 | S 2.51 | T 2.58 | V 2.73 | W 1.51 | Y 1.74
K15: A 2.27 | C 3.46 | D 2.75 | E 2.77 | F 2.07 | G 2.37 | H 2.47 | I 2.05 | L 2.42 | M 2.2 | N 2.61 | P 2.4 | Q 2.52 | S 2.52 | T 2.75 | V 2.13 | W 1.67 | Y 2.02
P16: A 2.52 | C 3.12 | D 3.02 | E 3.07 | F 1.62 | G 2.19 | H 2.61 | I 1.67 | K 2.24 | L 2.17 | M 2.45 | N 2.7 | Q 2.44 | R 1.99 | S 2.69 | T 2.37 | V 2.06 | W 2.41 | Y 2.42
G17: A 2.86 | C 3.97 | D 3.35 | E 3.44 | F 2.46 | H 3.18 | I 1.98 | K 3.11 | L 2.1 | M 2.43 | N 3.01 | P 2.75 | Q 3.46 | R 2.23 | S 2.75 | T 2.8 | V 2.26 | W 1.63 | Y 2.58
T18: A 2.62 | C 3.02 | D 3.4 | E 2.94 | F 2 | G 2.5 | H 2.59 | I 2 | K 2.71 | L 2 | M 2.67 | N 2.71 | P 2.65 | Q 2.67 | R 1.81 | S 2.76 | V 2.25 | W 1.47 | Y 2.15
A19: C 4.28 | D 3.66 | E 3.29 | F 1.63 | G 2.32 | H 3.2 | I 2.16 | K 2.8 | L 2.56 | M 2.28 | N 2.44 | P 2.86 | Q 2.91 | R 2.06 | S 3.72 | T 2.76 | V 2.37 | W 1.3 | Y 2.12
M20: A 3.27 | C 3.18 | D 3.61 | E 3.62 | F 1.87 | G 3.03 | H 2.85 | I 2.29 | K 3.7 | L 2.44 | N 3.16 | P 3.03 | Q 3.09 | R 3.25 | S 3.55 | T 3.16 | V 2.62 | W 2.04 | Y 1.99
C21: A 2.94 | D 2.96 | E 3.39 | F 2.71 | G 3.12 | H 3.04 | I 2.69 | K 3.81 | L 3.31 | M 2.28 | N 3.29 | P 3.59 | Q 3.43 | R 2.79 | S 3.37 | T 3.71 | V 2.72 | W 1.91 | Y 2.97
V22: A 3.04 | C 3.39 | D 3.43 | E 3.46 | F 2.16 | G 3.59 | H 3.01 | I 2.08 | K 3.18 | L 2.42 | M 2.52 | N 3.61 | P 3.05 | Q 3.44 | R 3.57 | S 3.6 | T 3.42 | W 1.35 | Y 2.34
G23: A 2.42 | C 3.18 | D 3.32 | E 3.25 | F 2.44 | H 2.52 | I 2.16 | K 3.18 | L 1.8 | M 1.58 | N 2.72 | P 3.31 | Q 2.57 | R 2.43 | S 2.76 | T 2.96 | V 2.28 | W 1.85 | Y 1.69
C24: A 3.09 | D 4.13 | E 4.5 | F 2.23 | G 3.17 | H 3.42 | I 2.8 | K 4.12 | L 2.48 | M 2.52 | N 3.64 | P 3.82 | Q 4.02 | R 3.52 | S 3.46
